A word on the Kd: it is the free concentration of one partner at which half of the binding sites on the other are occupied at equilibrium, for simple one-to-one binding.

This is an account of results in publication PMC5701133 (Scientific Reports, 2017).

The target in this assay is T1, BRD4 ET domain (residues M610-R676) (human, UniProt O60885 610-676, uniformly 15N-labelled for the NMR titrations).
T1 construct: human BRD4, extraterminal (ET) domain, residues 610-676; also called extraterminal (ET) domain of BRD4; source: E. coli BL21-CodonPlus (pRIL), purified (HiTrap IMAC, Superdex)
The assay can be described thus: ITC; MicroCal auto-ITC200, 20 °C, PBS pH 7.4 with 0.5 mM dithiothreitol; protein (0.5 mM) in the cell, peptide (7.5 mM) in the syringe; one set of sites model. To be noted: both partners purified. Background: Isothermal titration calorimetry measures the heat released or taken up as one component is titrated into another.

B1: JMJD6 peptide W85A (peptide, UniProt Q6NYC1 84-96, looked up)
peptide: KATLERLKRKYRN
notes: JMJD6 residues 84-96 with W85A; also called W85A peptide
Regarding B1, the Kd is 675 ± 66 µM.
